Laboratory results: the supplement of paper PMC10724198
± gives the standard deviation of the averaged measurements.

Tested on: Saccharomyces cerevisiae
Assay: protein stability index of tFT-peptide fusion (C-terminal peptide) (PSI (0-1 scale)); higher = more stable (slower turnover)
Conditions: temperature: 30 C
Method: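 MPS profiling in S. cerevisiae of the yeast C-terminome library: the last 12 aa of each annotated ORF are fused to the C-terminus of a sfGFP-mCherry timer, after a GGGS linker. Cells are FACS-sorted into 8 mCherry/sfGFP bins and deep-sequenced. PSI runs from 0 (unstable) to 1 (stable); wild type and das1Δ backgrounds, two technical replicates each.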

[1] = genetic background: das1 deletion

| Sequence | protein stability index [1] | protein stability index (genetic background: wild type) |
| --- | --- | --- |
| ILSLYFISDRTG [YBR200W-A C-terminal 12 aa] | 0.7249 ± 0.0034 | 0.753 ± 0.053 |
| QDYVKDRHHGLK [NUP157 C-terminal 12 aa] | 0.698 ± 0.01 | 0.679 ± 0.043 |
| PIQQSIAHINPP [LDS2 C-terminal 12 aa] | 0.718 ± 0.0075 | 0.6902 ± 0.0066 |
| GAQIISLDEDVF [GIP1 C-terminal 12 aa] | 0.715 ± 0.045 | 0.716 ± 0.037 |
| EGENVRSKVERF [YKL070W C-terminal 12 aa] | 0.7262 ± 0.0046 | 0.704 ± 0.053 |
| GGGYLTSLKLFI [YOR041C C-terminal 12 aa] | 0.68787 ± 0.00068 | 0.681 ± 0.031 |
| NRFGVLPDDVEE [ECM1 C-terminal 12 aa] | 0.714 ± 0.024 | 0.704 ± 0.032 |
| KSCDEDGQEDEA [TPA1 C-terminal 12 aa] | 0.693 ± 0.014 | 0.642 ± 0.011 |
| NMRFFYRLYVKN [BMT6 C-terminal 12 aa] | 0.489 ± 0.015 | 0.45 ± 0.0084 |
| PFIFKTLEEQGL [CCP1 C-terminal 12 aa] | 0.743 ± 0.06 | 0.691 ± 0.065 |
| KVWVAGQQVYQI [GUD1 C-terminal 12 aa] | 0.697 ± 0.012 | 0.6639 ± 0.0028 |
| LIIRNLNAEKER [YFR056C C-terminal 12 aa] | 0.6974 ± 0.0041 | 0.686 ± 0.039 |
| MLKFLAVVFFLL [YGL218W C-terminal 12 aa] | 0.392 ± 0.018 | 0.217 ± 0.011 |
| YRVARKPSQPVM [MTO1 C-terminal 12 aa] | 0.685 ± 0.012 | 0.683 ± 0.027 |
| SDDDVSSESEEE [BDF1 C-terminal 12 aa] | 0.6997 ± 0.0067 | 0.658 ± 0.015 |
| NYQKNEPVEFLE [MIN9 C-terminal 12 aa] | 0.711 ± 0.0097 | 0.656 ± 0.026 |
| INKKKSGSGCIC [YPT10 C-terminal 12 aa] | 0.696 ± 0.035 | 0.647 ± 0.026 |
| DSIRRIREKYSN [APP1 C-terminal 12 aa] | 0.6896 ± 0.0039 | 0.492 ± 0.013 |
| LGDIYTLTNNEL [PHO13 C-terminal 12 aa] | 0.701 ± 0.01 | 0.6802 ± 0.00082 |
| DYKLRELIYDTI [AIP5 C-terminal 12 aa] | 0.7014 ± 0.0011 | 0.661 ± 0.018 |
| ALGLAGAVMMLL [SPI1 C-terminal 12 aa] | 0.693 ± 0.013 | 0.746 ± 0.025 |

| Sequence | protein stability index [1] | protein stability index (genetic background: wild type) |
| --- | --- | --- |
| KESIQQQEDDLL [SEC17 C-terminal 12 aa] | 0.6974 ± 0.0026 | 0.692 ± 0.014 |
| QKTAQQKNCSIM [YNL234W C-terminal 12 aa] | 0.746 ± 0.018 | 0.721 ± 0.019 |
| IDEIYEDKWLKI [PSK2 C-terminal 12 aa] | 0.727 ± 0.027 | 0.74 ± 0.047 |
| STHIDHDKFSFF [CDC8 C-terminal 12 aa] | 0.7087 ± 0.0024 | 0.694 ± 0.021 |
| FYIDKFQVREVK [SUC2 C-terminal 12 aa] | 0.7059 ± 0.0061 | 0.683 ± 0.038 |
| LYTFIVKKVKRD [GID12 C-terminal 12 aa] | 0.671 ± 0.045 | 0.685 ± 0.024 |
| NNFCALYNLSNP [RPN14 C-terminal 12 aa] | 0.714 ± 0.022 | 0.6867 ± 0.0038 |
| LFGTCLVAMLLF [SPS22 C-terminal 12 aa] | 0.461 ± 0.023 | 0.449 ± 0.022 |
| TPTDSTPTKKDI [LAC1 C-terminal 12 aa] | 0.6941 ± 0.0027 | 0.725 ± 0.019 |
| NSSGEFQLESLF [MRI1 C-terminal 12 aa] | 0.707 ± 0.023 | 0.698 ± 0.051 |
| MNNLFNPHSHDS [GTA1 C-terminal 12 aa] | 0.7104 ± 0.0014 | 0.722 ± 0.042 |
| GRENGDVNIWAV [MDV1 C-terminal 12 aa] | 0.702 ± 0.013 | 0.715 ± 0.0099 |
| GESISMLFEHGW [PRS5 C-terminal 12 aa] | 0.719 ± 0.012 | 0.7458 ± 0.0051 |
| VNERSHDVKFTK [YIL165C C-terminal 12 aa] | 0.686 ± 0.006 | 0.689 ± 0.01 |
| EETLEFDPTLLV [YBL062W C-terminal 12 aa] | 0.707 ± 0.0077 | 0.692 ± 0.023 |
| KNRFSNGRWGRR [SLD2 C-terminal 12 aa] | 0.701 ± 0.036 | 0.72 ± 0.015 |
| IAPEVTYRGFIE [RIM9 C-terminal 12 aa] | 0.689 ± 0.027 | 0.685 ± 0.03 |
| APPKLNNSSESE [STE23 C-terminal 12 aa] | 0.681 ± 0.0074 | 0.674 ± 0.0091 |
| FFKQAEQEQADV [PRP11 C-terminal 12 aa] | 0.7024 ± 0.001 | 0.698 ± 0.0072 |
| IKRLDANTDFNI [MFB1 C-terminal 12 aa] | 0.678 ± 0.019 | 0.668 ± 0.024 |
| SLLFVGPLFLKV [YCL007C C-terminal 12 aa] | 0.401 ± 0.016 | 0.423 ± 0.012 |

| Sequence | protein stability index [1] | protein stability index (genetic background: wild type) |
| --- | --- | --- |
| SAENEESKEKCE [LAG1 C-terminal 12 aa] | 0.696 ± 0.051 | 0.658 ± 0.021 |
| KLDEAEMQGLIM [YMR158C-A C-terminal 12 aa] | 0.69 ± 0.012 | 0.724 ± 0.041 |
| QETAISVAKLFK [RPT6 C-terminal 12 aa] | 0.684 ± 0.007 | 0.7079 ± 0.007 |
| YQVSIAKVPRLT [BUD5 C-terminal 12 aa] | 0.711 ± 0.0095 | 0.4878 ± 0.0037 |
| VNHSFEFNDVLQ [IFH1 C-terminal 12 aa] | 0.686 ± 0.014 | 0.738 ± 0.025 |
| SFRPKSSNNPFR [ENT4 C-terminal 12 aa] | 0.734 ± 0.02 | 0.674 ± 0.021 |
| RSKYGAKKPSKS [MRPS12 C-terminal 12 aa] | 0.6815 ± 0.0025 | 0.6855 ± 0.0067 |
| ILDDTRQALGNT [PCL8 C-terminal 12 aa] | 0.703 ± 0.034 | 0.737 ± 0.013 |
| RPQYRRIAALEE [PSY3 C-terminal 12 aa] | 0.695 ± 0.023 | 0.672 ± 0.015 |
| QTLDSEYNTILQ [GAT2 C-terminal 12 aa] | 0.704 ± 0.024 | 0.742 ± 0.073 |
| TPRLYTDRSRDF [RPB2 C-terminal 12 aa] | 0.743 ± 0.0033 | 0.713 ± 0.013 |
| KSLRSSFGKKLI [PHS1 C-terminal 12 aa] | 0.706 ± 0.052 | 0.717 ± 0.046 |
| MLAKIHKLNNKA [RFC4 C-terminal 12 aa] | 0.7026 ± 0.0053 | 0.704 ± 0.066 |
| YWILKSNPTNES [YNL092W C-terminal 12 aa] | 0.742 ± 0.018 | 0.7246 ± 0.0071 |
| LKAVCPPEAGFD [VEL1 C-terminal 12 aa] | 0.7312 ± 0.0018 | 0.772 ± 0.019 |
| YINDISRTWNAN [MNT3 C-terminal 12 aa] | 0.68 ± 0.0086 | 0.679 ± 0.043 |
| MLNQQQQQQQQS [NRD1 C-terminal 12 aa] | 0.702 ± 0.016 | 0.739 ± 0.017 |
| KDWLIKTRKTSL [TVS1 C-terminal 12 aa] | 0.707 ± 0.013 | 0.693 ± 0.011 |
| GESVDKVTKNEQ [YPR114W C-terminal 12 aa] | 0.691 ± 0.011 | 0.662 ± 0.014 |
